For one substance, Cy3 Signal Intensity (Background subtracted) (arbitrary units) and Cy5 Signal Intensity (Background subtracted) (arbitrary units) results are on record in patent US20080214408A1.

Test [1] deals with GFP-Tus-His6 fusion protein (E. coli) (UniProt P16525). Nature of the test: protein microarray, fluorescence; fusion protein made in situ and held on plasmid with wild-type Ter site, detected with Cy3-labeled anti-his antibody.
Test [2] shares this target. Briefly: protein microarray, fluorescence; fusion protein made in situ and held on plasmid with wild-type Ter site, detected with Cy5-labeled anti-his antibody.
Test [3] has the same target. Nature of the test: protein microarray, fluorescence; fusion protein made in situ and held on plasmid with mutant Ter site (SEQ ID NO: 12), detected with Cy3-labeled anti-his antibody.
For test [4] the target is unchanged. Nature of the test: protein microarray, fluorescence; fusion protein made in situ and held on plasmid with mutant Ter site (SEQ ID NO: 12), detected with Cy5-labeled anti-his antibody.

With “monoclonal antibody to the poly-his tag (Sigma-Aldrich), labeled with Cy3 or Cy5”, the values for the Cy3 Signal Intensity (Background subtracted) (arbitrary units) in test [1] and in test [3] were 20600 and 10900, respectively. The figures for the Cy5 Signal Intensity (Background subtracted) (arbitrary units) in test [2] and in test [4] were 14000 and 4740, respectively.
